Molecular target: T1, human oncostatin M receptor beta (OSMRβ) (human, UniProt Q99650 28-979)
T1 sequence (looked up): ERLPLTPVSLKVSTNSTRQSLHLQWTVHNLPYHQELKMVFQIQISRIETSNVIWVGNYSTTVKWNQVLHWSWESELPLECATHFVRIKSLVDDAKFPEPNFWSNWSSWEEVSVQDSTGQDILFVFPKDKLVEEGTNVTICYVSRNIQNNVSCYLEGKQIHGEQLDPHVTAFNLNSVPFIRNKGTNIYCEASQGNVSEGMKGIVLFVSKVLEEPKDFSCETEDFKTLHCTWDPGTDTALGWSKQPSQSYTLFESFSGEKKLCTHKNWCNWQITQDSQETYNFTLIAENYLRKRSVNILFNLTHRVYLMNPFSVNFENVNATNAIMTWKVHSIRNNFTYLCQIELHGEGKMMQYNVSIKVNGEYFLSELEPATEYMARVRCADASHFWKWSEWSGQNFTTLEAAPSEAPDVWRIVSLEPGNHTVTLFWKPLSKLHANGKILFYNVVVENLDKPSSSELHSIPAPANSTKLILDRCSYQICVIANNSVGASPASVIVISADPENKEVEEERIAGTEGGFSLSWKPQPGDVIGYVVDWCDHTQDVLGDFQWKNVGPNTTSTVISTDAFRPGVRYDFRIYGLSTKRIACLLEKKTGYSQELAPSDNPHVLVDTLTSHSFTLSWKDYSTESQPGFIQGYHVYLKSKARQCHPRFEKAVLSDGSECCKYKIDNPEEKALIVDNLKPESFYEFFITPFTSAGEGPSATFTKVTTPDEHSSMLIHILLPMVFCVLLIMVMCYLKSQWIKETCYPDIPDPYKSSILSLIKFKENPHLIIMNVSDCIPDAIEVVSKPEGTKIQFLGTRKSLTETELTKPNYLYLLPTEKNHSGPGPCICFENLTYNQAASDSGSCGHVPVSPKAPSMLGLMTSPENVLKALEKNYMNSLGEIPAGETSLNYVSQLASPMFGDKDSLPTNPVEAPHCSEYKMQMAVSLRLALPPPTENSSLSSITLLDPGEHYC
Test: cell-based or functional assay

B1: vixarelimab (antibody, human IgG4 S228P, lambda, N297Q, V domains shown)
VH: QVQLVQSGAEVKKPGASVKVSCKASGYTFTSYEINWVRQATGQGLEWMGWMNPNSGYTGYAQKFQGRVTMTRDTSISTAYMEMSSLRSEDTAVYYCARDIVAANTDYYFYYGMDVWGQGTTVTVSS
VL: QSVLTQPPSASGTPGQRVTISCSGSNSNIGSNTVNWYHQLPGTAPKLLIYNINKRPSGVPDRFSGSKSGSSASLAISGLQSEDEADYYCSTWDDSLDGVVFGGGTKLTVLG
Question: How did the “Mean of IC50, inhibition of OSM-induced STAT3 phosphorylation (pSTAT3 Tyr705, MSD); IPF-derived lung fibroblasts, [OSM] 1 ng/mL” value turn out when B1 was run?
Answer: 12.4 ng/mL

Question: And the “Mean of IC50, inhibition of OSM-induced STAT3 phosphorylation (pSTAT3 Tyr705, MSD); IPF-derived lung fibroblasts, [OSM] 10 ng/mL” value?
Answer: 56.1 ng/mL

Question: And the “Mean of IC50, inhibition of OSM-induced STAT3 phosphorylation (pSTAT3 Tyr705, MSD); normal keratinocytes, [OSM] 10 ng/mL” value?
Answer: 4.95 ng/mL

Question: What about the “Mean of IC50, inhibition of OSM-induced STAT3 phosphorylation (pSTAT3 Tyr705, MSD); normal keratinocytes, [OSM] 100 ng/mL” value of the same binder?
Answer: 45 ng/mL

Question: And the “Mean of IC50, inhibition of OSM-induced STAT3 phosphorylation (pSTAT3 Tyr705, MSD); normal lung fibroblasts, [OSM] 1 ng/mL” value?
Answer: 13 ng/mL

Question: What about the “Mean of IC50, inhibition of OSM-induced STAT3 phosphorylation (pSTAT3 Tyr705, MSD); normal lung fibroblasts, [OSM] 10 ng/mL” value of the same binder?
Answer: 88.2 ng/mL

Reference: patent US20260000759A1 (Genentech, published 2026)
